T1: Macaca fascicularis (mf) RET.mmh (Macaca fascicularis)
T1 construct: also called monkey RET
T1 chain: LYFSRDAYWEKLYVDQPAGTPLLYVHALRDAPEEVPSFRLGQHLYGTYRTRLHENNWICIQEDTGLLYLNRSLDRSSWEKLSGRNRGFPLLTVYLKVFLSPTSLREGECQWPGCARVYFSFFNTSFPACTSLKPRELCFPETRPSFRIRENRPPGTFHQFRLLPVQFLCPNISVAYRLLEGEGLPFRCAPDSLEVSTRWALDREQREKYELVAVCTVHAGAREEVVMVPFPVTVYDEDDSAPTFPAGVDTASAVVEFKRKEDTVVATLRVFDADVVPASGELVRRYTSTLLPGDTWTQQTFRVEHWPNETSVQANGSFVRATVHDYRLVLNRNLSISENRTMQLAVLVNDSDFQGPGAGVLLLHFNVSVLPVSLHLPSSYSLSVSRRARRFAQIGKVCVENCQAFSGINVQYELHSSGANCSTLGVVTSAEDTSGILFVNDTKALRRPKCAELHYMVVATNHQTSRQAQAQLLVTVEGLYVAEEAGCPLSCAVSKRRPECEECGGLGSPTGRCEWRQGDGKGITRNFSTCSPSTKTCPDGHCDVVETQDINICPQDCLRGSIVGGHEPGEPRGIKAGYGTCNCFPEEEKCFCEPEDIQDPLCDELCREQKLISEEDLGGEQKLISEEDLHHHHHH

B1: H4H8066P (antibody, human IgG4, V domains shown)
VH: EVQLVESGGGLVQPGGSLRLSCEASGFTFSRYAMTWVRQAPGKGLEWVSGISGSGGSTFYVDSLQGRFTLSRDNSKHTLFLQMNSLRAEDTAIYYCAKENTYGHFDYWGQGTLVTVSS
VL: DIQLTQSPSFLSASVGDRVTITCWASQDISTYLAWYQQKPGKAPQVLIYAASSLQYGVPSRFSGSGSGTEFTLTITSLQPEDFATYYCQQLIGYPYIFGQGTKLEIK
notes: human IgG4 Fc (H4H prefix)
B2: H4H8083P (antibody, human IgG4, V domains shown)
VH: QVQLVESGGGVVQPGRSLRLSCAASGFTFNNYVMHWVRQAPGKGLEWVALIWYDGSNKYYADSVKGRFTISRDNSKNALNLQMNSLRAEDTAVYFCARVSIAARNYYYGGLDVWGQGTTVTVSS
VL: EIVLTQSPGTLSLSPGERATLSCRASQSVSSTYLAWYQQKPGQAPRLLIYGASSRATGIPDRFSGSGSGTDFTLTISRLEPEDFAVYYCQHYGGSPLTFGGGTKVEIK
notes: human IgG4 Fc (H4H prefix)
B3: H4H8080P (antibody, human IgG4, V domains shown)
VH: EVQLVESGGGLVQSGGSLRLSCVASGFTFSTYAMTWVRQAPGRGLEWVSAISGSGASTYYADSLKGRFTVSRDNSKNTLYLQMNSLRAEDTAVYYCSKDHRNYDSDYDMDVWGQGTTVTVSS
VL: DIQMTQSPSSLSASVGDRVTITCRASQGIRNYLGWYQQKPGKAPKRLIYTASSLQSGVPSRFRGSGSGTEFTLTISSLQPEDFATYYCLQHNSYPYTFGQGTKLEIK
notes: human IgG4 Fc (H4H prefix)
B4: H4H8084P (antibody, human IgG4, V domains shown)
VH: QVQLVESGGGVVQPGRSLRLSCEASGFTFRNYGMHWVRQAPGKGLDWVSTIYYDGSDEYYSDSVKGRFTISRDNSKNTLYLQMNSLRAEDTAVYYCARDPPSFRYFDYWGQGTLVTVSS
VL: DIQMTQSPSTLSASVGDRVTITCRASQSIRSWLTWYQQKPGKAPKVLIYKASTLERGVPSRFSGSGSGTEFTLTISSLQPEDFATYYCHQYSSYSYTFGQGTKLEIK
notes: human IgG4 Fc (H4H prefix)

Assays:
hRET.mmh [1] = biological target: T2, hRET.mmh (human, UniProt P07949 29-635, biotinylated in the ELISA of Example 4 (biot-hRET.mmh); not in the SPR of Example 3); test: competition sandwich ELISA: 1 nM biot-hRET.mmh + antibody, plate-coated GDNF/GFRα1 co-complex
T2 construct: also called biot-hRET.mmh; soluble monomeric human RET
Procedure: The ability of anti-RET antibodies to block the binding of human RET to pre-complexed plate bound GDNF:GFRα1 was assessed using a competition sandwich ELISA.
Antibody-RET mixtures were incubated for 1 hour at RT and then transferred to microtiter plates previously coated with the hGDNF/hGFRα1 co-complex. Binding was allowed to proceed for 1 hr at RT followed by extensive washing. […] Plates were read at 450 nm and data analysis used a sigmoidal dose-response model within Prism™ software.
The absorbance values of the wells containing the highest concentration for each antibody were used to determine the blocking percent at maximum concentration antibody tested.

[2] = biological target: T1, Macaca fascicularis (mf) RET.mmh; test: SPR Biacore T200, mAb capture, 37 C
Procedure: (§1) Binding affinities and kinetic constants of human anti-RET antibodies were determined by surface plasmon resonance (Biacore T200) at […] (Tables 2-3). […] Binding equilibrium dissociation constants (KD) and dissociative half-lives (t_{1/2}) were calculated from the kinetic rate constants as: KD [M]=kd/kₐ; and t_{1/2}(min)=(ln2/(60*kd). Calculations were performed using BiacoreT200 evaluation software v1.0.

hRET.mmh [3] = biological target: T2, hRET.mmh; test: SPR Biacore T200, mAb capture, 37 C
Procedure: as §1

hRET.mFc [4] = biological target: T3, hRET.mFc (human); test: SPR Biacore T200, mAb capture, 37 C
T3 construct: also called dimeric human RET
Procedure: as §1

[5] = biological target: T1, Macaca fascicularis (mf) RET.mmh; test: SPR Biacore T200, mAb capture, 25 C
Procedure: as §1

hRET.mmh [6] = biological target: T2, hRET.mmh; test: SPR Biacore T200, mAb capture, 25 C
Procedure: as §1

hRET.mFc [7] = biological target: T3, hRET.mFc; test: SPR Biacore T200, mAb capture, 25 C
Procedure: as §1

Binder | % Max Blocking (hRET.mmh [1]) [%] | IC50 (hRET.mmh [1]) [nM] | Kd [2] [nM] | koff [2] [s⁻¹] | Kd (hRET.mmh [3]) [nM] | koff (hRET.mmh [3]) [s⁻¹] | kon (hRET.mmh [3]) [M⁻¹ s⁻¹] | t½ (hRET.mmh [3]) [min] | Kd (hRET.mFc [4]) [nM] | koff (hRET.mFc [4]) [s⁻¹] | kon (hRET.mFc [4]) [M⁻¹ s⁻¹] | t½ (hRET.mFc [4]) [min] | Kd (hRET.mmh [6]) [nM] | koff (hRET.mmh [6]) [s⁻¹] | kon (hRET.mmh [6]) [M⁻¹ s⁻¹] | t½ (hRET.mmh [6]) [min] | Kd (hRET.mFc [7]) [nM] | koff (hRET.mFc [7]) [s⁻¹] | kon (hRET.mFc [7]) [M⁻¹ s⁻¹] | t½ (hRET.mFc [7]) [min] | also measured
B1 | 57 | 0.41 | 39.4 | 0.00323 | 5.43 | 0.00106 | 195000 | 11 | 1.28 | 0.000335 | 262000 | 34 | 2.02 | 0.000257 | 127000 | 45 | 0.58 | 0.00012 | 207000 | 96 | kon [2]: 81900 M⁻¹ s⁻¹; t½ [2]: 4 min; Kd [5]: 13.7 nM; koff [5]: 0.000882 s⁻¹; kon [5]: 64300 M⁻¹ s⁻¹; t½ [5]: 13 min
B2 | 95 | < 0.25 | 14.2 | 0.004 | 9.04 | 0.00255 | 282000 | 5 | 3.02 | 0.0008 | 264000 | 14 | 2.52 | 0.000484 | 192000 | 24 | 1.14 | 0.000224 | 197000 | 52 | kon [2]: 283000 M⁻¹ s⁻¹; t½ [2]: 3 min; Kd [5]: 3.44 nM; koff [5]: 0.000711 s⁻¹; kon [5]: 207000 M⁻¹ s⁻¹; t½ [5]: 16 min
B3 | 82 | < 0.25 | – | – | 9.35 | 0.00267 | 285000 | 4 | 3.98 | 0.00107 | 269000 | 11 | 2.38 | 0.000502 | 211000 | 23 | 1.32 | 0.000242 | 183000 | 48 | binding result [5]: no binding
B4 | 96 | < 0.25 | 1.76 | 0.00178 | 1.56 | 0.00165 | 1.06e+06 | 7 | 0.809 | 0.00085 | 1.05e+06 | 14 | 0.518 | 0.000375 | 723000 | 31 | 0.284 | 0.000204 | 720000 | 57 | kon [2]: 1.01e+06 M⁻¹ s⁻¹; t½ [2]: 6 min; Kd [5]: 0.565 nM; koff [5]: 0.000393 s⁻¹; kon [5]: 695000 M⁻¹ s⁻¹; t½ [5]: 29 min
